# ± gives the standard error. For some assays here: Variants at the floor of the assay were thinned out.
# B1: glmS ribozyme (parent)
# chain: AUAAAAGCGCCAGAACUACAGAAAUGUAGUUGACGAGGAGGAGGUUUAUCGAAUUUUCGGCGGAUGCCUCCAAA
# Legend:
# Conditions in all cases: with glucosamine-6-phosphate
# glucosamine-6-phosphate [1] = variants of: B1; assay: kcat; higher = faster cleavage; RNA array
# Summary of the method: (§1)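 Barcoded ribozyme variants on sequenced MiSeq chips were transcribed in situ by E. coli RNA polymerase and followed at 37 °C through a hybridised Cy3 probe. Glucosamine-6-phosphate at 40 μM to 10 mM in HEPES/KCl/Mg(OAc)2 buffer was flowed in, and tiles were imaged over ~14 h. Signals were normalised to baseline and to non-cleaving reference variants, and per-tile medians were fit to one- or two-exponential decays to give kobs. Weighted Michaelis–Menten fits across concentrations gave kcat and KM.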
# glucosamine-6-phosphate [2] = variants of: B1; assay: self-cleavage kobs at 160 uM GlcN6P; higher = faster cleavage; RNA array
# Summary of the method: as §1
# glucosamine-6-phosphate [3] = variants of: B1; assay: self-cleavage kobs at 640 uM GlcN6P; higher = faster cleavage; RNA array
# Summary of the method: as §1
# glucosamine-6-phosphate [4] = variants of: B1; assay: self-cleavage kobs at 10000 uM GlcN6P; higher = faster cleavage; RNA array
# Summary of the method: as §1
# glucosamine-6-phosphate [5] = variants of: B1; assay: KM; higher = weaker cofactor use; RNA array
# Summary of the method: as §1
# glucosamine-6-phosphate [6] = variants of: B1; assay: self-cleavage kobs at 40 uM GlcN6P; higher = faster cleavage; RNA array
# Summary of the method: as §1
# glucosamine-6-phosphate [7] = variants of: B1; assay: self-cleavage kobs at 2500 uM GlcN6P; higher = faster cleavage; RNA array
# Summary of the method: as §1
Variant,kcat (glucosamine-6-phosphate [1]) [s⁻¹],self-cleavage kobs at 160 uM GlcN6P (glucosamine-6-phosphate [2]) [s⁻¹],self-cleavage kobs at 640 uM GlcN6P (glucosamine-6-phosphate [3]) [s⁻¹],self-cleavage kobs at 10000 uM GlcN6P (glucosamine-6-phosphate [4]) [s⁻¹],KM (glucosamine-6-phosphate [5]) [µM],self-cleavage kobs at 40 uM GlcN6P (glucosamine-6-phosphate [6]) [s⁻¹],self-cleavage kobs at 2500 uM GlcN6P (glucosamine-6-phosphate [7]) [s⁻¹]
C61U G62A,< 1e-05,< 1e-05,< 1e-05,< 1e-05,–,–,–
U47C U56G,0.00245 ± 0.00054,0.000196 ± 4e-05,0.000708 ± 8.7e-05,0.00243 ± 0.0003,1580 ± 540,7.97e-05 ± 1.3e-05,0.00108 ± 0.00025
U30A A36G,< 1e-05,–,< 1e-05,–,–,< 1e-05,–
A39U U65G,0.00369 ± 0.0011,0.0002 ± 2.9e-05,0.000445 ± 9.7e-05,0.0031 ± 0.00036,2880 ± 1200,6.84e-05 ± 8.5e-06,0.00164 ± 0.00021
G32A G66A,0.00312 ± 0.0006,–,0.000269 ± 6.9e-05,0.0019 ± 0.00044,6290 ± 1700,–,0.000911 ± 0.00018
A15G U56C,0.0034 ± 0.0013,0.00017 ± 2.9e-05,0.000805 ± 0.00025,0.00354 ± 0.0006,–,5.65e-05 ± 1.3e-05,0.00116 ± 0.00021
A48C C67U,0.000136 ± 1.3e-05,–,–,9.42e-05 ± 1.2e-05,4380 ± 1100,–,5.35e-05 ± 1.4e-05
A12G G32U C70U,0.00103 ± 0.00043,0.000103 ± 1.9e-05,0.000285 ± 6.9e-05,0.00121 ± 0.00019,–,–,0.000425 ± 9e-05
A12C U65C,0.00043 ± 7.3e-05,–,0.000102 ± 1.9e-05,0.000343 ± 6.2e-05,1950 ± 620,–,0.000328 ± 8.4e-05
A6G G13A,< 1e-05,< 1e-05,< 1e-05,–,–,< 1e-05,–
A12U A52U,0.00174 ± 0.00012,7.11e-05 ± 2e-05,0.000233 ± 3.8e-05,0.00123 ± 0.00011,4090 ± 490,–,0.000681 ± 9.8e-05
G63U,< 1e-05,< 1e-05,–,< 1e-05,–,< 1e-05,< 1e-05
A53C C58A,5.04e-05 ± 1.4e-05,–,–,3.91e-05 ± 8.6e-06,–,–,1.94e-05 ± 7.6e-06
G29U U55C,0.00826 ± 0.0027,0.000198 ± 7.2e-05,0.00112 ± 0.0002,0.00588 ± 0.00079,3740 ± 1700,0.000123 ± 1.8e-05,0.00427 ± 0.0009
G37U C61U,< 1e-05,–,–,–,–,–,–
A52C C68A,2.96e-05 ± 7.8e-06,–,3.82e-05 ± 1.2e-05,–,–,–,3.05e-05 ± 1.2e-05

Variant,kcat (glucosamine-6-phosphate [1]) [s⁻¹],self-cleavage kobs at 160 uM GlcN6P (glucosamine-6-phosphate [2]) [s⁻¹],self-cleavage kobs at 640 uM GlcN6P (glucosamine-6-phosphate [3]) [s⁻¹],self-cleavage kobs at 10000 uM GlcN6P (glucosamine-6-phosphate [4]) [s⁻¹],KM (glucosamine-6-phosphate [5]) [µM],self-cleavage kobs at 40 uM GlcN6P (glucosamine-6-phosphate [6]) [s⁻¹],self-cleavage kobs at 2500 uM GlcN6P (glucosamine-6-phosphate [7]) [s⁻¹]
U31C U55A,0.00809 ± 0.0017,0.000289 ± 6.8e-05,0.00126 ± 0.00017,0.00623 ± 0.00059,3270 ± 1100,0.000152 ± 2.3e-05,0.00333 ± 0.00051
C61A C70A,< 1e-05,< 1e-05,–,–,–,< 1e-05,–
A39G G44C,0.000507 ± 6.5e-05,–,0.000101 ± 1.9e-05,0.000394 ± 4.8e-05,2450 ± 660,–,0.000327 ± 6.4e-05
A14U U47G,0.00156 ± 0.00026,0.000115 ± 1.4e-05,0.000416 ± 4.8e-05,0.00132 ± 0.00013,1750 ± 450,5.6e-05 ± 8.8e-06,0.000947 ± 0.00011
C11G U56G,1.32e-05 ± 5.5e-06,–,< 1e-05,–,–,< 1e-05,–
U31C U45C,0.0005 ± 0.0001,–,5.17e-05 ± 1.1e-05,0.000327 ± 4.5e-05,4690 ± 1600,–,0.000213 ± 3.5e-05
G32U C58U,0.000916 ± 0.0003,6.06e-05 ± 1.7e-05,0.000118 ± 1.5e-05,0.000655 ± 6.4e-05,–,–,0.000245 ± 3e-05
A48G G63A,< 1e-05,< 1e-05,–,–,–,< 1e-05,–
A39G A64C,0.000357 ± 5.4e-05,–,5.91e-05 ± 2.4e-05,0.000267 ± 5.3e-05,2860 ± 950,–,0.000202 ± 5.3e-05
G59A G66A,0.000247 ± 1.9e-05,–,–,–,–,–,–
C58A C67U,0.000215 ± 1.7e-05,–,6.4e-05 ± 1e-05,0.000182 ± 1.7e-05,1370 ± 290,–,0.000161 ± 2e-05
G51U U56C,< 1e-05,< 1e-05,< 1e-05,–,–,< 1e-05,–
G40C U55C,0.000721 ± 0.00014,2.05e-05 ± 5.9e-06,0.00012 ± 3.6e-05,0.000483 ± 7.8e-05,4590 ± 1400,–,0.000287 ± 8.2e-05
U31C C58G,7.48e-05 ± 2.5e-05,–,2.98e-05 ± 1.3e-05,6.27e-05 ± 1.2e-05,–,< 1e-05,2.91e-05 ± 1.1e-05
G32U C67G,0.000119 ± 1.3e-05,–,4.87e-05 ± 1.6e-05,0.000107 ± 1.2e-05,1520 ± 570,–,6.69e-05 ± 1.2e-05
C10U G60A,1.02e-05 ± 1.8e-06,–,–,–,–,< 1e-05,–
